According to the supplement of paper PMC7877785:
± gives the uncertainty stated by the source.

Assay: self-splicing fitness, log relative to wild type (ln ratio); higher = more splicing; Tetrahymena group I intron in knt gene, E. coli kanamycin selection, DiMSum; sequences stand for … in CUCUCU…GGAGGGAAAAGUUAUCAGGCAUGCACCUGGUAGCUAGUCUUUAAACCAAUAGAUUGCAUCGGUUUAAAAGGCAAGACCGUCAAAUUGCGGGAAAGGGGUCAACAGCCGUUCAGUACCAAGUCUCAGGGGAAACUUUGAGAUGGCCUUGCAAAGGGUAUGGUAAUAAGCUGACGGACAUGGUCCUAACCACGCAGCCAAGUCCUAAGUCAACAGAUCUUCUGUUGAUAUGGAUGCAGUUCACAGACUAAAUGUCGGUCGGGGAAGAUGUAUUCUUCUCAUAAGAUAUAGUCGGACCUCUCCUUAAUGGGAGCUAGCGGAUGAAGUGAUGCAACACUGGAGCCGCUGGGAACUAAUUUGUAUGCGAAAGUAUAUUGAUUAGUUUUGGAGUACUCGUGGUCG
Procedure, shortened: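 Colonies from six replicate transformations of E. coli BL21(DE3) were pooled and amplicon-sequenced on an Illumina HiSeq 2500. The library placed an intron with all eight P1ex-region nucleotides randomised inside the knt kanamycin-resistance gene on pET-22b(+), and cells grew overnight at 37°C or 30°C on LB agar with or without 25 μg/mL kanamycin (plus 100 μg/mL carbenicillin, 50 μM IPTG, 0.2% rhamnose). Fitness is the DiMSum error-weighted combination of wild-type-normalised replicate fold changes, kanamycin versus none.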

| Sequence | self-splicing fitness (ln) (30 °C) | self-splicing fitness (ln) (37 °C) |
| --- | --- | --- |
| CGACAGCAAUAUUACGACGA | -1.01 ± 0.12 | 0.0299 ± 0.14 |
| CGACAGCAAUAUUACGACGC | -2.21 ± 0.11 | -0.587 ± 0.12 |
| CGACAGCAAUAUUACGAGAU | -3.16 ± 0.23 | -2.01 ± 0.21 |
| CGACAGCAAUAUUACGAGGU | -3.14 ± 0.33 | -1.73 ± 0.2 |
| CGACAGCAAUAUUACGAUAG | -0.383 ± 0.06 | -0.728 ± 0.07 |
| CGACAGCAAUAUUACGAUGA | -0.751 ± 0.075 | -0.41 ± 0.075 |
| CGACAGCAAUAUUACGAUGU | -2.74 ± 0.15 | -2.59 ± 0.18 |
| CGACAGCAAUAUUACGCCCC | -1.19 ± 0.16 | 0.564 ± 0.24 |
| CGACAGCAAUAUUACGCGAC | – | -2.98 ± 0.26 |
| CGACAGCAAUAUUACGGAAU | -2.5 ± 0.24 | -2.54 ± 0.26 |
| CGACAGCAAUAUUACGGAUA | -2.09 ± 0.14 | -1.91 ± 0.15 |
| CGACAGCAAUAUUACGGAUG | -0.977 ± 0.051 | -0.0449 ± 0.059 |
| CGACAGCAAUAUUACGGAUU | -3.77 ± 0.17 | -1.73 ± 0.099 |
| CGACAGCAAUAUUACGGCCC | -0.607 ± 0.19 | -0.549 ± 0.24 |
| CGACAGCAAUAUUACGGCUA | -2.5 ± 0.2 | -1.39 ± 0.14 |
| CGACAGCAAUAUUACGGGAU | -3.98 ± 0.18 | -2.52 ± 0.19 |
| CGACAGCAAUAUUACGGGCC | -2.97 ± 0.17 | -2.43 ± 0.23 |
| CGACAGCAAUAUUACGUCUU | -0.458 ± 0.066 | -0.212 ± 0.073 |
| CGACAGCAAUAUUACGUGGC | -3.68 ± 0.28 | -3.29 ± 0.26 |
| CGACAGCAAUAUUACGUUUC | -3.98 ± 0.24 | -2.23 ± 0.15 |
| CGAGAGCAAUAUUACGAAAG | -3.64 ± 0.4 | -1.55 ± 0.31 |
| CGAGAGCAAUAUUACGACUG | -1.29 ± 0.15 | -0.27 ± 0.19 |
| CGAGAGCAAUAUUACGAUAA | -4.29 ± 0.46 | -2.37 ± 0.45 |
| CGAGAGCAAUAUUACGAUUU | -1.8 ± 0.33 | -2.17 ± 0.37 |
| CGAGAGCAAUAUUACGCCAA | -1.49 ± 0.2 | -1.99 ± 0.38 |

| Sequence | self-splicing fitness (ln) (30 °C) | self-splicing fitness (ln) (37 °C) |
| --- | --- | --- |
| CGAGAGCAAUAUUACGCCGG | -2.74 ± 0.41 | -1.27 ± 0.45 |
| CGAGAGCAAUAUUACGCGCU | -2.04 ± 0.38 | – |
| CGAGAGCAAUAUUACGCGGC | – | -1.9 ± 0.41 |
| CGAGAGCAAUAUUACGCUUA | -2.49 ± 0.23 | -2.13 ± 0.46 |
| CGAGAGCAAUAUUACGCUUU | – | -2.33 ± 0.39 |
| CGAGAGCAAUAUUACGGAGU | -4.55 ± 0.42 | -1.6 ± 0.2 |
| CGAGAGCAAUAUUACGGGAA | -1.44 ± 0.33 | -1.71 ± 0.44 |
| CGAGAGCAAUAUUACGGUGG | -1.72 ± 0.34 | -2.24 ± 0.34 |
| CGAGAGCAAUAUUACGGUUU | -3.15 ± 0.15 | -2.58 ± 0.21 |
| CGAGAGCAAUAUUACGUACG | -3.14 ± 0.17 | -2.28 ± 0.29 |
| CGAGAGCAAUAUUACGUCUG | -1.33 ± 0.24 | -1.31 ± 0.17 |
| CGAGAGCAAUAUUACGUGAU | -4.24 ± 0.24 | -2.58 ± 0.2 |
| CGAGAGCAAUAUUACGUGCU | -4.22 ± 0.46 | – |
| CGAUAGCAAUAUUACGAAUG | -0.898 ± 0.082 | 0.443 ± 0.11 |
| CGAUAGCAAUAUUACGACAG | 0.215 ± 0.1 | 0.719 ± 0.12 |
| CGAUAGCAAUAUUACGACCC | -2.33 ± 0.44 | – |
| CGAUAGCAAUAUUACGAGCU | -3.42 ± 0.4 | -3.09 ± 0.35 |
| CGAUAGCAAUAUUACGAGGG | -2.4 ± 0.15 | -2.14 ± 0.26 |
| CGAUAGCAAUAUUACGAGUU | -3.61 ± 0.24 | -2.28 ± 0.23 |
| CGAUAGCAAUAUUACGAUUG | -2.27 ± 0.12 | -1.2 ± 0.12 |
| CGAUAGCAAUAUUACGCAAA | -2.98 ± 0.29 | -1.92 ± 0.15 |
| CGAUAGCAAUAUUACGCAGU | -2.96 ± 0.19 | -2.48 ± 0.19 |
| CGAUAGCAAUAUUACGCCUC | -2.84 ± 0.24 | -1.74 ± 0.26 |
| CGAUAGCAAUAUUACGGAAG | -1.53 ± 0.083 | -0.509 ± 0.11 |
